Results: the supplement of paper PMC10567573

B1: KCNA1 (parent)
chain: LKASMRELGLLIFFLFIGVILFSS
B2: FUNDC2 (parent)
chain: YIKVDWQRVEKDMKKAKEQLKIRK

Variants of: B1
Assay: protein stability index of a GFP-peptide fusion (GPS, HEK-293T) (PSI 1-6); higher = more stable
Details: c terminus: a fixed tail appended
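Further: lentivirally expressed fusions sorted by FACS into six bins by GFP to DsRed ratio, PSI derived from sequencing read proportions per bin multiplied by bin number.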

Protein stability index of substitutions, site by site:
S24: F 2.02 | N 2.83 | V 1.85 | P 3.1 | W 1.84 | L 1.47 | A 2.04 | I 1.23 | M 2.42 | E 2.02 | C 1.19 | Q 2.11 | H 2 | D 2 | Y 2.06 | T 2 | K 3.45
L21: K 1.88 | R 3.21 | S 3.5 | C 2.43 | I 2.17 | N 2.64 | H 2.98 | F 3.04 | Q 3.29 | Y 1.91 | M 2.32 | T 2.68 | V 2.12 | P 2.86 | D 3.39 | G 3.19 | W 2.35
V19: K 4.72 | S 3.99 | H 4.02 | M 2.52 | T 3.34 | N 2.33 | R 2.66 | W 2.1 | D 2.65 | G 2.85 | L 1.59 | P 2.51 | F 1.99 | Q 3.09 | Y 1.86 | I 2.27
F22: Q 3.69 | V 1.8 | Y 1.93 | M 2.98 | H 3.76 | D 2.83 | W 2.75 | R 2.24 | L 2.25 | G 1.81 | T 3.72 | S 2.95 | P 2.64 | K 2.81 | N 3.37 | I 2.43 | E 2.63 | A 2.33
I20: F 2.32 | E 2.38 | T 2.4 | V 3.45 | K 3.18 | D 3.22 | C 2.75 | A 3.3 | Y 2.65 | S 2.1 | W 2.02 | M 3.52 | L 1.96 | Q 2.9
S23: I 1.85 | R 3.62 | H 2.15 | F 2.15 | K 3.15 | C 1.67 | W 2.38 | N 2.41 | P 2.42 | G 2.03 | V 2 | L 2.19 | D 2.75 | T 1.44 | Q 2.13 | M 2.35 | Y 2.2 | A 2.19

Variants of: B2
Assay: as above
Details: c terminus: a fixed tail appended

Protein stability index of substitutions, site by site:
K11: R 2.09 | T 2.56 | G 1.2 | M 1.57 | V 2.16 | D 2.06 | S 1.97 | Q 2.12 | F 1.64 | H 1.95 | N 2.59 | P 2.5 | C 1.53 | L 1.46 | Y 1.55 | A 2.37 | I 1.78 | E 2.01
W6: I 2.47 | M 2.46 | P 3.15 | L 2.28 | K 3.09 | Y 2.24 | H 2.83 | R 2.97 | N 3.23 | S 3.31 | A 3.39 | Q 2.71 | C 2.64 | E 2.91 | D 3.77 | G 2.81 | T 2.97 | V 3.49 | F 2.63
D12: R 1.91 | E 1.82 | P 1.45 | Y 3.43 | N 1.47 | M 2.97 | V 3.62 | Q 2.63 | T 1.74 | L 2.8 | H 1.03 | G 2.68
I2: D 3.58 | T 2.37 | S 3.37 | F 2.74 | A 3.35 | E 4.42 | C 1.93 | P 2.54 | K 3.35 | R 2.53 | N 3.6 | L 2.26 | M 4.03 | Q 1.75 | V 1.83 | W 2.96 | Y 3 | G 3.6
V4: Y 2.4 | K 1.92 | F 1.73 | N 2.13 | H 2.52 | R 2.74 | D 1.99 | T 1.71 | G 2.36 | S 2.25 | I 2.53 | A 3.41 | E 1.81 | L 2.23 | M 1.45 | Q 1.83 | C 1.56
V9: I 2.28 | N 2.37 | W 1.99 | H 1.61 | M 1.26 | K 2.45 | R 1.73 | Y 1.67 | P 1.81 | Q 2.16 | G 1.95 | C 1.94 | T 1.66 | E 2.56 | F 1.54 | S 1.91 | L 2.04 | D 2.62 | A 1.5
Q7: L 2.01 | Y 1.69 | E 1.92 | N 2.47 | S 1.76 | G 2.9 | D 1.49 | P 1.37 | R 1.43 | C 2.41 | V 2.33 | A 1.79 | K 1.95 | F 2.84 | I 2.7 | T 1.73 | H 1.45
D5: T 2.29 | K 2.1 | N 2.19 | H 1.64 | W 3.34 | Q 1.62 | P 2.21 | E 1.52 | L 2.48 | F 2.33 | C 1.03 | Y 3.3 | S 1.47 | G 2.43 | A 3.55 | M 2.46 | R 1.78
M13: L 1.63 | R 2.29 | T 1.4 | Q 1.82 | A 1.24 | H 1.82 | V 1.95 | K 1.92 | C 1.73 | I 1.89 | F 1.79 | Y 2.14 | E 1.87 | G 2.32 | N 2.3 | S 2.21 | W 2.29 | D 1.83 | P 1.17
K14: I 1.67 | F 1.51 | L 2.19 | E 1.42 | D 1.65 | H 1.14 | A 1.6 | C 1.83
K3: H 1.39 | V 2.79 | I 1.73 | R 2.18 | S 1.88 | A 2.13 | M 1.91 | E 2.4 | D 4.58 | Y 3.14 | F 1.98 | W 2.09 | G 2.54 | N 2.22 | L 1.67 | C 2.86 | P 2.07
E10: P 1.77 | T 2.36 | Y 1.79 | D 1.85 | S 2.33 | Q 1.36 | W 1.56 | R 1.27 | H 2.58 | M 1.73 | V 1.52 | N 1.62 | L 1.65 | A 1.92 | F 1.78 | G 1.09 | K 1.73
R8: N 1.79 | Y 1.62 | I 1.82 | M 2.35 | G 1.71 | A 2.35 | V 1.74 | H 2.11 | S 1.96 | E 2.15 | C 1.04 | P 2.48 | T 2.21 | Q 1.68 | K 2.01 | L 2.21 | D 2.05 | F 1.99
Y1: H 3.34 | T 3.07 | S 3.11 | R 3.6 | V 2.53 | P 3.81 | M 2.63 | I 2.21 | G 4.26 | F 1.85 | D 4.17 | W 1.99 | L 3.22 | E 4.15 | K 3.09 | N 3.7 | Q 3.49 | A 2.98
